{"source": "patent US11419837B2", "about": "“Modified release orally administered amino acid formulations” (APR APPLIED PHARMA RESEARCH S.A., priority 2015, dated 2022)", "key": {"[1]": {"assay": "In vivo bioavailability in pig: mean of analyzed essential amino acid plasma concentrations", "conditions": "ESSENTIAL AA (RAW DATA), pigs, oral by gavage, 0.8 g of amino acid/kg body weight", "method": "(§1) The following formulations were tested: • APR-04 (bkT037/72-4) • APR-07 (bkT037/73-7) • Free amino acid (bkT037/71) • Casein In Vivo Study Design: • Subjects: 8 pigs • Design: 4 formulations in crossover • Administration route and method: oral, by gavage. The product dose was administered to each animal mixed with a small amount of water (300 ml) in order to ensure fast (≤5 minutes) assumption. The total amount of the product was administered using syringes. The animals were fasted for 13.5±0.5 hours before the treatment and the access to water was suspended one hour before and one hour after the treatment. • Dose, frequency and duration of administration: The amount of product administered was based on body-weight and equaled 0.8 g of amino acid/kg body weight for each test product. The products were administered by a single administration in the morning of each day of treatment. • Wash out: 48-72 hours • Blood sampling: 0.75 h before Treatment (T), 0.5 h before T, 0.25 h before T, 0.25 h after T, 0.5 h after T, 0.75 h after T, 1 h after T, 1.25 h after T, 1.5 h after T, 2 h after T, 2.5 h after T, 3 h after T, 4 h after T, 5 h after T • Analysis: The plasma concentrations of 14 amino acids (Alanine, Arginine, Glutamine, Glycine, Histidine, Isoleucine, Leucine, Lysine, Proline, Serine, Threonine, Tryptophan, Tyrosine, Valine) were measured and analyzed. Methionine and Aspartic acid were excluded from the analysis due to stability issues. The following parameters were evaluated: Area Under the concentration/time Curve (AUC0-last), peak concentration (Cmax), time to peak concentration (Tmax) and Clast. The behavior of the two APR Formulations was compared to the formulation of Free Amino Acids and Casein. Results:\nThe amino acids aggregated together for analysis were Arginine, Histidine, Isoleucine, Leucine, Threonine, Lysine, Tryptophan and Valine. This subgroup was chosen for analysis because these amino acids cannot be endogenously synthesized. As a result, their concentrations in plasma from sampling the jugular vein may be more representative of the intestinal adsorption of the tested formulations than the non-essential amino acids whose presence in blood could be independently generated by the organism.\nThe statistical analysis for the date reported in Table 14c (for AUC, Cmax, and Clast: one-way repeated measures ANOVA with post hoc analysis with Bonferroni adjustment; for Tmax: Friedman test followed by multiple sign test for pairwise comparison) is reported in Table 14d."}, "[2]": {"assay": "In vivo bioavailability in pig: large neutral amino acid (LNAA) plasma concentrations", "conditions": "LNAA (RAW DATA), pigs, oral by gavage", "method": "as §1\nThe amino acids aggregated together for analysis were tryptophan, threonine, valine, isoleucine, leucine, histidine. […] Phenylalanine was excluded from the analysis because it was not present in the formulations tested. This subgroup of essential amino acids was chosen for analysis because LNAA share with phenylalanine a common transport system in order to enter the brain. High plasma concentration of LNAAs may reduce the uptake into the brain(Van Spronsen et al). might thus bring clinical advantages. In particular, if the analysis on the subgroup show an increased Clast for the APR formulations versus the free amino acid formulations, it can be speculated that the patient may have a sort of “prolonged protection/tolerance” to phenylalanine."}, "[3]": {"assay": "In vivo bioavailability in pig: mean of branched chain amino acid (BCAA) plasma concentrations", "conditions": "BCAA (RAW DATA), pigs, oral by gavage, 0.8 g of amino acid/kg body weight", "method": "as §1\nThe amino acids aggregated together for analysis were valine, isoleucine and leucine. This subgroup of essential amino acids was chosen for analysis because these essential amino acids are unique among amino acids in that their first catabolic step cannot occur in the liver. As a consequence, they largely escape first-pass splanchnic metabolism (Brosnan et al).\nThe statistical analysis for the date reported in Table 14e (for AUC, Cmax, and Clast: one-way repeated measures ANOVA with post hoc analysis with Bonferroni adjustment; for Tmax: Friedman test followed by multiple sign test for pairwise comparison) is reported in Table 14f"}, "[4]": {"assay": "In vivo bioavailability in pig: mean aggregate plasma concentrations of 14 amino acids", "conditions": "pigs, oral by gavage; for AUC 0-last / Cmax: 0.8 g of amino acid/kg body weight", "method": "as §1, with “Results: […]” for “Results:”"}, "[5]": {"conditions": "tryptophan, threonine, valine, isoleucine, leucine, histidine, 0.8 g of amino acid/kg"}, "[6]": {"conditions": "14 AA (BC DATA, basal values subtracted)"}, "[7]": {"conditions": "14 AA (RAW DATA, basal values not subtracted)"}}}
{"substance": "Casein", "values": [{"measurement": "Clast", "setting": "[1]; last sampling (5h)", "value": 153.0}, {"measurement": "AUC 0-last", "setting": "[1]", "value": 969.9}, {"measurement": "Cmax", "setting": "[1]", "value": 299, "unit": "µM"}, {"measurement": "Tmax", "setting": "[1]", "value": 1.16, "unit": "h"}, {"measurement": "Clast", "setting": "[2]; last sampling (5h), 0.8 g of amino acid/kg body weight", "value": 143.0}, {"measurement": "AUC 0-last", "setting": "[2]; [5]", "value": 868.9}, {"measurement": "Cmax", "setting": "[2]; [5]", "value": 257, "unit": "µM"}, {"measurement": "Tmax", "setting": "[2]; [5]", "value": 1.16, "unit": "h"}, {"measurement": "Clast", "setting": "[3]; last sampling (5h)", "value": 228.7}, {"measurement": "AUC 0-last", "setting": "[3]; valine, isoleucine and leucine", "value": 1365.3}, {"measurement": "Cmax", "setting": "[3]; valine, isoleucine and leucine", "value": 401, "unit": "µM"}, {"measurement": "Tmax", "setting": "[3]; valine, isoleucine and leucine", "value": 1.16, "unit": "h"}, {"measurement": "AUC 0-last", "setting": "[4]; [6]", "value": 258.9}, {"measurement": "Cmax", "setting": "[4]; [6]", "value": 147, "unit": "µM"}, {"measurement": "Clast", "setting": "[4]; 14 AA (RAW DATA), plasma concentration at the last sampling (5h), 0.8 g of amino acid/kg", "value": 172.9}, {"measurement": "AUC 0-last", "setting": "[4]; [7]", "value": 1125.6}, {"measurement": "Cmax", "setting": "[4]; [7]", "value": 325, "unit": "µM"}]}
